Measurements published in article PMC5812564.
Values belong to the substance of their own block, whether it stands above or below them.

How the values were obtained:
RAGE V domain = RAGE V domain (UniProt Q15109)
S100A1 (human) [1] = assay: other fluorescence titration; intrinsic tryptophan fluorescence of 3.50 μM S100A1, S100B added from 0 to 42 μM in steps of 2 μM; excitation 295 nm, emission read at 351 nm
S100A1 (human) [2] = assay: NMR titration; 1H-15N HSQC, 15N-labelled protein with the unlabelled partner added, each pair in both directions, molar ratios 1:0 and 1:1 (1:0.66 and 1:1 for Kd); 25 °C; 20 mM Tris, 5 mM CaCl2, 5 mM DTT, 50 mM (NH4)2SO4, pH 7.2; Kd as the mean over selected residues
[3] = biological target: S100A1 as used in the titrations with the RAGE V domain (mutant-S100A1 (C85S) by the introduction) (human); assay: as above

Chain of RAGE V domain (Q15109 24-128): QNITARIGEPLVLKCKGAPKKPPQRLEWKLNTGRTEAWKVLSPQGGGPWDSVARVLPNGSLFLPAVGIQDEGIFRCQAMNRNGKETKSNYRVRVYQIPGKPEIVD

Substance: S100A1 (natural protein)
WST-1 proliferation assay, serum-starved SW480 cells (RAGE highly expressed) treated for 48 h with 10, 50 and 100 nM S100A1; viable cell count against the serum-free control (RAGE V domain): 1.53 fold
WST-1 proliferation assay, serum-starved SW480 cells treated for 48 h with 100 nM S100A1 and 100 nM S100B; viable cell count against the serum-free control (RAGE V domain): 1.39 fold

Kd (S100A1 (human) [1]): 1.9 µM
Kd (S100A1 (human) [2]): 5.9 µM
Substance: S100B (natural protein)

Kd [3]: 6.13 µM
Substance: RAGE V domain (from UniProt Q15109 24-128) (domain or fragment)
